Results from the supplement of paper PMC10567573.
± gives the standard deviation.

Assay: protein stability index of a GFP-peptide fusion (GPS, HEK-293T) (PSI 1-6); higher = more stable
[1] = treatment: DMSO, c terminus: a fixed tail appended
[2] = treatment: MLN4924 1 uM, 8 h, c terminus: a fixed tail appended
[3] = treatment: DMSO, c terminus: native
[4] = treatment: MLN4924 1 uM, 8 h, c terminus: native
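Note: 24-mer peptide tiles fused after GFP, lentivirally expressed, FACS-sorted into six equal bins by GFP/DsRed ratio, decoded by Illumina sequencing, PSI is the read-weighted mean bin number.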

Sequence | protein stability index [1] | protein stability index [2] | protein stability index [3] | protein stability index [4]
HCKAGLGRTGTLIACYVMKHYRFT [CDC14A] | 3.52 ± 0.52 | 2.76 ± 0.37 | – | –
LKSAKDLPPDALIIEYRGKFMLRE [KMT2E] | 2.15 ± 0.4 | 2.38 ± 0.43 | – | –
MMMMGPKEEEQSCEYETRLPGNHS [ZNF232] | 4.51 ± 0.48 | 4.64 ± 0.4 | – | –
MFLQLVPSWNGSLKQLLTETDVWF [GMCL1] | 3.13 ± 0.68 | 2.56 ± 1.3 | – | –
YPIIFVYYLRKGKKINSNQLENEQ [SPANXN3] | 2.37 ± 0.33 | 2.14 ± 0.26 | – | –
YRHLLEGEDCKLPPQPCATACKPV [KRT36] | 3.97 ± 0.2 | 3.93 ± 0.11 | – | –
ALRNLPPLRAAHRRFNFDTDRPLL [SMG5] | 2.72 ± 0.21 | 2.85 ± 0.45 | – | –
EPPCEGNTFFCHSNMCINNTLVCN [NETO1] | 2.9 ± 0.24 | 2.85 ± 0.35 | – | –
VTLNFNVPGEFKQDVTVVGSAGRL [GFOD1] | 2.23 ± 0.74 | 2.15 ± 0.37 | – | –
NIRSARGNNPNGREAKMICFKSVA [ELOA2] | 3.4 ± 0.15 | 3.34 ± 0.27 | – | –
PDDKLTLFCEVSVVQDSVNISGHT [SPOPL] | 2.47 ± 0.52 | 2.81 ± 0.49 | – | –
DLSMDGLFGTIAYLPPERIREKSR [RIPK4] | 3.58 ± 0.27 | 3.66 ± 0.34 | – | –
CGACLTQLFFFHLFVGVDCFLLTA [OR3A1] | 3.07 ± 0.2 | 3.02 ± 0.33 | – | –
QQVPMPPGQEAQRVVCGIDSSMIL [NEK8] | 3.39 ± 0.29 | 3.5 ± 0.33 | – | –
VAERKYTQEQARKEFQQVFIPECN [SMOC2] | 4.38 ± 0.19 | 4.41 ± 0.23 | – | –
KQIIRKHAQTFVALCATDVKFISN [CCND1] | 2.26 ± 0.1 | 2.39 ± 0.055 | – | –
FYKREMFDPAEKYKMDHRRRGIAL [CASP6] | 2.84 ± 0.2 | 2.78 ± 0.26 | – | –
SIFYDLPQGSGFCLGQLNLEQRSE [SMAD6] | 3.21 ± 0.21 | 3.45 ± 0.25 | – | –
PGFGCKAVRCASGRCTVRDFIHRH [SDE2] | 2.08 ± 0.43 | 2.14 ± 0.46 | – | –
PEIEKADDHLQQPLQNQKILKRTG [ZNF649] | 5.3 ± 0.29 | 5.5 ± 0.24 | – | –
ARGPGPEGGGGGSYFSGQGSDTGA [JUNB] | 5.11 ± 0.27 | 4.91 ± 0.18 | – | –
LGIPKSTTSDIPHMLNQVESKVKD [FAM98B] | 5.04 ± 0.27 | 5.23 ± 0.11 | – | –
NNQSDLEKEMQKMNPYKIDIGAVY [PRIM1] | 3.03 ± 0.24 | 3.03 ± 0.16 | – | –

Sequence | protein stability index [1] | protein stability index [2] | protein stability index [3] | protein stability index [4]
AGHCSASPGPAAPTARMPGRLRG | – | – | 3 ± 0.6 | 2.93 ± 0.73
VLGEDVIVNDELYLNGASVLPHKS [GMPPB] | 4.23 ± 0.28 | 4.31 ± 0.18 | – | –
DNLLAAADKYALERLKVMCEEALC [SPOPL] | 2.75 ± 0.32 | 2.78 ± 0.15 | – | –
RAVRQSVTSFPDADAFHHQVHDDD [EMD] | 5.2 ± 0.17 | 5.314 ± 0.044 | – | –
GRDWRHLPTITSELSGAPRCHTVP [PXN] | 3.44 ± 0.48 | 3.51 ± 0.17 | – | –
NQTALHLAAAHGHSEVVEELVSAD [RIPK4] | 5.46 ± 0.082 | 5.36 ± 0.11 | – | –
RTCTAPLDRLKVLMQVHASRSNNM [SLC25A25] | 2.68 ± 0.2 | 2.81 ± 0.21 | – | –
MSQTGSHPGRGLAGRWLWGAQPCL [ADAMTS4] | 3 ± 0.38 | 2.28 ± 0.87 | – | –
EKFSDEGDSDSALDSVSPCPSSPK [DLC1] | 5.41 ± 0.51 | 5.58 ± 0.13 | – | –
RKTQKKVPDVKEMEKSSFTEYIES [TAF7L] | 4.43 ± 0.13 | 4.47 ± 0.27 | – | –
RRLYEKKIFEYETQRRRLSPPSSS [EMD] | 3.25 ± 0.26 | 3.35 ± 0.48 | – | –
ASLHTLLGDPCPMLESPGAPCRSA [HDAC6] | 3.62 ± 0.23 | 3.83 ± 0.27 | – | –
QLDALPFFVITMIKIVLINSFGAI [SLC29A1] | 2.96 ± 0.54 | 3.31 ± 0.17 | – | –
TRGWVQTLARMSRRTRGPVERAAA [C6orf223] | 3.23 ± 0.22 | 3.57 ± 0.098 | – | –
IKPPCIPNGKENFSGGTSLWQNI [CAMK2D] | – | – | 3.2 ± 0.13 | 3.2 ± 0.21
RRFNFFVLENNLEAVARHMLIFSL [DNAAF3] | 2.77 ± 0.49 | 2.6 ± 0.47 | – | –
RDMNGKSLDGKAIKVEQATKPSFE [RBMX] | 5.08 ± 0.24 | 5.24 ± 0.27 | – | –
QDIDLGAGREVFDYSHRQKEQDVE [NFE2L1] | – | 5.05 ± 0.84 | – | –
NIPFFPDLQITDQVALLRLTWSEL [NR2F2] | 2.68 ± 0.45 | 2.12 ± 0.58 | – | –
YAVLAAEPELQVGIDIMKTSFPGR [AASDHPPT] | 2.61 ± 0.28 | 2.73 ± 0.4 | – | –
GYSLADWVCLAYFTSGFNAAALDY [SPACA3] | 3.33 ± 0.44 | 2.98 ± 0.13 | – | –
LHEALLEYEAGRAGPGGGAERRRA [ESRRA] | 4.27 ± 0.34 | 4.82 ± 0.18 | – | –
